Molecular target: natural affinity purified heavy chain class I K^d molecules
Experiment: binding to natural class I heavy chain molecules, format not given (follows the binding inhibition experiment)

Recombinant murine β2-microglobulin
affinity, times lower than that of the (human) β2-microglobulin: 5 times lower
